Test results reported in the supplement of paper PMC10567573.

B1: MYL5 (parent)
chain: DVAGNLDYKALSYVITHGEEKEE

Variants of: B1
Experiment: protein stability index of a GFP-peptide fusion (GPS, HEK-293T) (PSI 1-6); higher = more stable
Settings: c terminus: native
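Also: lentivirally expressed fusions sorted by FACS into six bins by GFP to DsRed ratio, PSI derived from sequencing read proportions per bin multiplied by bin number.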

Protein stability index: each site, then its substitutions
G4: S 2.09, H 2.09, P 1.61, M 1.59, I 1.46, N 1.51, T 2.42, A 2.02, F 1.77, L 2.03, E 2.63, R 2.5, Y 1.57, D 1.82, V 1.92, C 2.45
E22: Q 4.82, W 3.59, P 4.22, V 4.09, Y 4.13, C 4.34, H 4.65, F 4.43, G 4.27, S 4.46, I 4.14, K 5.21, M 4.25, N 4.88, L 4.25
Y13: P 3.39, V 1.75, Q 2.33, F 1.8, S 2.97, E 2.9, A 2.7, I 2.14, L 2.01, K 2.46
H17: E 2.25, N 3.23, S 3.05, Q 1.96, G 2.4, D 2.89, T 2.12, A 1.39, P 1.83, C 1.67, K 1.79, W 1.79
E23: H 2.67, D 4.94, C 4.24, P 2.26, K 3.3, S 3.81, M 2.22, Q 4.85, T 4.54, G 4.37, V 2.5, N 4.99
E20: P 1.3, C 1.47, N 2.19, A 3.08, K 2.05, H 2.53, R 2.46, Q 2.59, V 1.27, Y 2.61, S 1.26, D 1.91, M 1.77
Y8: K 1.39, P 2.05, N 1.56, C 2.32, Q 1.98, T 1.42, H 1.48, V 2.62, I 2.11, R 1.75, A 2.1, D 1.81, E 2.01
A10: Q 2, E 2.35, M 2.23, S 2.08, I 2.24, H 2, P 2.28, Y 1.22, T 1.9, N 2.48, G 2.1
V14: D 2.97, S 2.31, E 2.51, K 2.5, I 3.02, N 3.53, R 1.31, P 2.48, G 2.28, C 2.07, T 2.14, F 2.25
I15: K 2.19, N 2.63, Y 3.01, E 3.02, P 2.16, L 1.89, C 2.95, F 2.49, Q 2.17, R 2.73, G 2.31, D 2.31
L6: T 2.82, M 1.76, C 1.74, Q 1.93, Y 1.93, W 1.72, K 2.06, V 1.36, S 1.7, A 2.55, N 3.84, G 1.93, H 2.28
D1: F 2.11, I 1.97, K 2.34, A 2.07, S 2.46, H 3.37, V 1.66, M 1.65, C 2.21, T 2.13, N 2.24, Q 2.1, R 2.74
L11: H 2.75, K 2.08, G 2.48, T 2.81, V 1.88, Y 2.08, S 1.36, I 1.93, N 2.23, P 2.45, E 2.64, M 1.15
N5: R 1.67, V 2.05, D 2.69
